What all share (assay): SPR; KD relative to WT C2;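 also: biacore SPR at 37 °C, anti-C2 mAbs captured on an anti-human IgG chip, alanine or serine C2 surface mutants tested, KD from 1:1 fit compared with wild-type C2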
A general note: SPR reads the build-up and loss of mass on a sensor chip optically.

One test has as its target T1, human C2 E267A (human, UniProt P06681 21-752).
T1 sequence: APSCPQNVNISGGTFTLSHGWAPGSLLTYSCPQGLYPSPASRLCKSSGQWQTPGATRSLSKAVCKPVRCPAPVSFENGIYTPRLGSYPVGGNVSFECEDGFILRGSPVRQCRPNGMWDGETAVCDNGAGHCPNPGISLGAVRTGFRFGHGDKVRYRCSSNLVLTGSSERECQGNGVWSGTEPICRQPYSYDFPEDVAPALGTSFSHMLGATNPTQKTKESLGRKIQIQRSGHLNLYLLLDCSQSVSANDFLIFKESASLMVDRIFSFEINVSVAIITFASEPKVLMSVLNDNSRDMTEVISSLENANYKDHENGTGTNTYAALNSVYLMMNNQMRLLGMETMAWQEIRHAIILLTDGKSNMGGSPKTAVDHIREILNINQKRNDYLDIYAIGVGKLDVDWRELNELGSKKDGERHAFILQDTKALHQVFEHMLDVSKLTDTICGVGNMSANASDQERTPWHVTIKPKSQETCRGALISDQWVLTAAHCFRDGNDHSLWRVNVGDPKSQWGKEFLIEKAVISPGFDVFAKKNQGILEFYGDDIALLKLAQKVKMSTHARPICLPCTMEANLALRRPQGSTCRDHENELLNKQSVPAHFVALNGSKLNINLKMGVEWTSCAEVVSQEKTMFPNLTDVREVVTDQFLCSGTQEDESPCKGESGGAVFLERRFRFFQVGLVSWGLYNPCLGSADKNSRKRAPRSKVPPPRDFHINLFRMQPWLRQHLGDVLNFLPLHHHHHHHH

The next test has as its target T2, human C2 R688A (human, UniProt P06681 21-752).
T2 sequence: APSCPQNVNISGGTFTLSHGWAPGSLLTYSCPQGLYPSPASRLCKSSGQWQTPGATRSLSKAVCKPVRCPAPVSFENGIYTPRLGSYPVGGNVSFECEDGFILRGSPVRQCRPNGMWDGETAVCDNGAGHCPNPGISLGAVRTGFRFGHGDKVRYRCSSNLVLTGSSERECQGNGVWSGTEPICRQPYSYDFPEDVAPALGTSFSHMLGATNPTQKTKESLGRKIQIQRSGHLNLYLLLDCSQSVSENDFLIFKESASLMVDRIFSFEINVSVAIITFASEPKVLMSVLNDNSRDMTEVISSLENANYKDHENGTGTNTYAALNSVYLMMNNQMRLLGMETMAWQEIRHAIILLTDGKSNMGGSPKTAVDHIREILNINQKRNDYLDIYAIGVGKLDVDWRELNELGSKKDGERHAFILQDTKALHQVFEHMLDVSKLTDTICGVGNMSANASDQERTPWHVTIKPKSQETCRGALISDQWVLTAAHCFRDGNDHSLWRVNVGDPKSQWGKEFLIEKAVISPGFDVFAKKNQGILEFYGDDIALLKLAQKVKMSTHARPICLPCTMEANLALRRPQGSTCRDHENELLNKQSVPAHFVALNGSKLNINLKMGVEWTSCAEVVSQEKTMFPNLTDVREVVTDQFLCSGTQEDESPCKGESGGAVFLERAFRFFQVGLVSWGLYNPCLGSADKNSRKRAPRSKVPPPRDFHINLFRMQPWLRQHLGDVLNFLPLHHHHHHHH

A further test has as its target T3, human C2 E450A (human, UniProt P06681 21-752).
T3 sequence: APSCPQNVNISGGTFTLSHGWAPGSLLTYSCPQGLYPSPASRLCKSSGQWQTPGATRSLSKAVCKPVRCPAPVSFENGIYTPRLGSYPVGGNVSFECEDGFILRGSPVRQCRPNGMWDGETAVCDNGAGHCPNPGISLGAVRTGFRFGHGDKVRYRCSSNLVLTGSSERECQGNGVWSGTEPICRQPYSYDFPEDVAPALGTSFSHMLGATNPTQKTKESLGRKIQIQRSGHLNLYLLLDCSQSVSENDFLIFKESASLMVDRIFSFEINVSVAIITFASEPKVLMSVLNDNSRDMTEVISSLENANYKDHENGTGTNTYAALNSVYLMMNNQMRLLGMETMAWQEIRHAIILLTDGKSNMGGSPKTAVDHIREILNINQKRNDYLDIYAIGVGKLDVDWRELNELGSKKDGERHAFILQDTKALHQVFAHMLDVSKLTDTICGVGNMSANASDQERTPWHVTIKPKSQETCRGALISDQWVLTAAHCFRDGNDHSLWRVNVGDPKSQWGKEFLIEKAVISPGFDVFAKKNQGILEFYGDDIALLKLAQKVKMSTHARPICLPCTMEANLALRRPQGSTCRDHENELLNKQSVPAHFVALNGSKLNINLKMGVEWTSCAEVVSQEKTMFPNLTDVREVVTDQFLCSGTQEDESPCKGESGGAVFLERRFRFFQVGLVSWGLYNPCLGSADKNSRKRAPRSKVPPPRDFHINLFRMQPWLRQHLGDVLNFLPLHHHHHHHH

The target of another test is T4, human C2 E476A (human, UniProt P06681 21-752).
T4 sequence: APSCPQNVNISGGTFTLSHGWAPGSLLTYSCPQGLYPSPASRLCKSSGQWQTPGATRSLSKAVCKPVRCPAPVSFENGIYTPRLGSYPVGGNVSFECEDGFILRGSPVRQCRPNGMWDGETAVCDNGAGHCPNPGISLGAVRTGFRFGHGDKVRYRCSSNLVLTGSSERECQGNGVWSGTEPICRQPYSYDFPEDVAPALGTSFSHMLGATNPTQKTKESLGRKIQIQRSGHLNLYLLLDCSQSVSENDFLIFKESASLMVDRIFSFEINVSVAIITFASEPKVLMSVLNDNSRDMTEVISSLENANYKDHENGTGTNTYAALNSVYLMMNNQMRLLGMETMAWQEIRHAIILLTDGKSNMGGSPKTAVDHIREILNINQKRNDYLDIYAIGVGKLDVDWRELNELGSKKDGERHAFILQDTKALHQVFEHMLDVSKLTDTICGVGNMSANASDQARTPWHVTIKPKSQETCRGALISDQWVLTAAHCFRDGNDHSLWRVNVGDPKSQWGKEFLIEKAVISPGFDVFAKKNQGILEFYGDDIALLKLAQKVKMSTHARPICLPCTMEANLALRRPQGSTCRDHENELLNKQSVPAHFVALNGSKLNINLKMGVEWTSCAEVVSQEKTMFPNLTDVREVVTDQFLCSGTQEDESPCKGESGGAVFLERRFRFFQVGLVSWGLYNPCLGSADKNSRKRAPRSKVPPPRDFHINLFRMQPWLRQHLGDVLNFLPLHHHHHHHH

B1: RF16-214 (antibody, V domains shown)
VH: EVQLLESGGGLVQPGGSLRLSCAASGFTFSWYQMMWVRQAPGKGLEWVSRIYPSGGGTAYADSVKGRFTISRDNSKNTLYLQMNSLRAEDTAVYYCARDAGYGDNWGQGTLVTVSS
VL: QSALTQPPSVSVSPGQTASITCSGDKLGEKYASWYQQKAGQSPVMVIYQDRKRPSGIPERFSGSNSGNTATLTISGTQAMDEADYYCQAWDTRAVVFGGGTKLTVLG
Regarding B1, the Fold diff worked out at 1 fold in the test with human C2 E267A, 3 fold in the test with human C2 R688A, 20 fold with human C2 E450A and 2 fold in the test with human C2 E476A.

For the origin of these results see patent US20220332804A1 (CSL INNOVATION, published 2022).
